Data: patent US20180085469A1

Experiments:
CD22 (human) [1] = molecular target: CD22 (human) (UniProt P20273); assay: flow cytometry, MN-60 cells, FITC goat anti-human IgG detection
CD22 (human) [2] = molecular target: CD22 (human) (UniProt P20273); assay: flow cytometry, Jeko-1 cells, FITC goat anti-human IgG detection
CD22 (human) [3] = molecular target: CD22 (human) (UniProt P20273); assay: flow cytometry, REH cells, FITC goat anti-human IgG detection
CD22 (human) [4] = molecular target: CD22 (human) (UniProt P20273); assay: flow cytometry, Ramos cells, FITC goat anti-human IgG detection
CD22 (human) [5] = molecular target: CD22 (human) (UniProt P20273); assay: flow cytometry, Daudi cells, FITC goat anti-human IgG detection
CD22 (human) [6] = molecular target: CD22 (human) (UniProt P20273); assay: flow cytometry, WSU-FSCCL cells, FITC goat anti-human IgG detection
CD22 (human) [7] = molecular target: CD22 (human) (UniProt P20273); assay: flow cytometry, 697 cells, FITC goat anti-human IgG detection
CD22 (human) [8] = molecular target: CD22 (human) (UniProt P20273); assay: flow cytometry, Raji cells, FITC goat anti-human IgG detection
CD22 (human) [9] = molecular target: CD22 (human) (UniProt P20273); assay: flow cytometry, RS4;11 cells, FITC goat anti-human IgG detection
[10] = molecular target: Human trophoblast cell-surface antigen (TROP-2) (human) (UniProt P09758); assay: flow cytometry, surface, Capan-1 cells
[11] = molecular target: Human trophoblast cell-surface antigen (TROP-2) (human) (UniProt P09758); assay: flow cytometry, surface, NCI-N87 cells
[12] = molecular target: CD74 (invariant chain, Ii) (human) (UniProt P04233); assay: flow cytometry, surface, Hep-G2 cells; ratio to background (GAH-FITC only)
[13] = molecular target: CD74 (invariant chain, Ii) (human) (UniProt P04233); assay: flow cytometry, surface, NCI-N87 cells; ratio to background (GAH-FITC only)
[14] = molecular target: CD74 (invariant chain, Ii) (human) (UniProt P04233); assay: flow cytometry, surface and cytoplasmic (permeabilized), Hs746T cells
[15] = molecular target: CD74 (invariant chain, Ii) (human) (UniProt P04233); assay: flow cytometry, surface, Raji cells, GAH-FITC detection
[16] = molecular target: CD74 (invariant chain, Ii) (human) (UniProt P04233); assay: flow cytometry, surface and cytoplasmic (permeabilized), Hep-G2 cells; ratio to background
[17] = molecular target: CD74 (invariant chain, Ii) (human) (UniProt P04233); assay: flow cytometry, surface and cytoplasmic (permeabilized), HuH-7 cells; ratio to background
[18] = molecular target: CD74 (invariant chain, Ii) (human) (UniProt P04233); assay: flow cytometry, surface and cytoplasmic (permeabilized), Raji cells
[19] = molecular target: CD74 (invariant chain, Ii) (human) (UniProt P04233); assay: flow cytometry, surface, A-375 cells; ratio to background (GAH-FITC only)
[20] = molecular target: CD74 (invariant chain, Ii) (human) (UniProt P04233); assay: cell binding assay on antigen-positive cells
[21] = molecular target: CD74 (invariant chain, Ii) (human) (UniProt P04233); assay: flow cytometry, surface and cytoplasmic (permeabilized), Capan-1 cells; ratio to background
[22] = molecular target: CD74 (invariant chain, Ii) (human) (UniProt P04233); assay: flow cytometry, surface and cytoplasmic (permeabilized), A-375 cells; ratio to background
[23] = molecular target: CD74 (invariant chain, Ii) (human) (UniProt P04233); assay: flow cytometry, surface, NCI-N87 cells, GAH-FITC detection
[24] = molecular target: CD74 (invariant chain, Ii) (human) (UniProt P04233); assay: flow cytometry, surface and cytoplasmic (permeabilized), Hep-G2 cells
[25] = molecular target: CD74 (invariant chain, Ii) (human) (UniProt P04233); assay: flow cytometry, surface, Hep-G2 cells, GAH-FITC detection
[26] = molecular target: CD74 (invariant chain, Ii) (human) (UniProt P04233); assay: flow cytometry, surface, HuH-7 cells, GAH-FITC detection
[27] = molecular target: CD74 (invariant chain, Ii) (human) (UniProt P04233); assay: flow cytometry, surface and cytoplasmic (permeabilized), NCI-N87 cells
[28] = molecular target: CD74 (invariant chain, Ii) (human) (UniProt P04233); assay: flow cytometry, surface and cytoplasmic (permeabilized), Raji cells; ratio to background
[29] = molecular target: CD74 (invariant chain, Ii) (human) (UniProt P04233); assay: flow cytometry, surface and cytoplasmic (permeabilized), Hs746T cells; ratio to background
[30] = molecular target: CD74 (invariant chain, Ii) (human) (UniProt P04233); assay: flow cytometry, surface and cytoplasmic (permeabilized), HuH-7 cells
[31] = molecular target: CD74 (invariant chain, Ii) (human) (UniProt P04233); assay: flow cytometry, surface and cytoplasmic (permeabilized), NCI-N87 cells; ratio to background
[32] = molecular target: CD74 (invariant chain, Ii) (human) (UniProt P04233); assay: flow cytometry, surface, HuH-7 cells; ratio to background (GAH-FITC only)
[33] = molecular target: CD74 (invariant chain, Ii) (human) (UniProt P04233); assay: flow cytometry, surface, Hs746T cells; ratio to background (GAH-FITC only)
[34] = molecular target: CD74 (invariant chain, Ii) (human) (UniProt P04233); assay: flow cytometry, surface, Capan-1 cells; ratio to background (GAH-FITC only)
[35] = molecular target: CD74 (invariant chain, Ii) (human) (UniProt P04233); assay: flow cytometry, surface, Capan-1 cells, GAH-FITC detection
[36] = molecular target: CD74 (invariant chain, Ii) (human) (UniProt P04233); assay: flow cytometry, surface and cytoplasmic (permeabilized), Capan-1 cells
[37] = molecular target: CD74 (invariant chain, Ii) (human) (UniProt P04233); assay: flow cytometry, surface, Raji cells; ratio to background (GAH-FITC only)
[38] = molecular target: CD74 (invariant chain, Ii) (human) (UniProt P04233); assay: flow cytometry, surface, A-375 cells, GAH-FITC detection
[39] = molecular target: CD74 (invariant chain, Ii) (human) (UniProt P04233); assay: flow cytometry, surface, Hs746T cells, GAH-FITC detection
[40] = molecular target: CD74 (invariant chain, Ii) (human) (UniProt P04233); assay: flow cytometry, surface and cytoplasmic (permeabilized), A-375 cells
CD20 (human) [41] = molecular target: T1, CD20 (human) (UniProt P11836); assay: flow cytometry, MN-60 cells, FITC goat anti-human IgG detection
T1 sequence (looked up): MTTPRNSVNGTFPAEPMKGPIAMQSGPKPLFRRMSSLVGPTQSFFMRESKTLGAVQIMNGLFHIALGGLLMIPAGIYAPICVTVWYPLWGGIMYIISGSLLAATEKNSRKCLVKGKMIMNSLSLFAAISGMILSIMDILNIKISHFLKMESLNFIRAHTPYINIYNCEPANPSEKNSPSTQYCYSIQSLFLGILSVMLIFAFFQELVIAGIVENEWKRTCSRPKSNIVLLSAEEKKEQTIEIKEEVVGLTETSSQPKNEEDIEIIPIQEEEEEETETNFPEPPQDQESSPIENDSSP

CD20 (human) [42] = molecular target: T1, CD20 (human); assay: flow cytometry, Jeko-1 cells, FITC goat anti-human IgG detection
CD20 (human) [43] = molecular target: T1, CD20 (human); assay: flow cytometry, REH cells, FITC goat anti-human IgG detection
CD20 (human) [44] = molecular target: T1, CD20 (human); assay: flow cytometry, Ramos cells, FITC goat anti-human IgG detection
CD20 (human) [45] = molecular target: T1, CD20 (human); assay: flow cytometry, Daudi cells, FITC goat anti-human IgG detection
CD20 (human) [46] = molecular target: T1, CD20 (human); assay: flow cytometry, WSU-FSCCL cells, FITC goat anti-human IgG detection
CD20 (human) [47] = molecular target: T1, CD20 (human); assay: flow cytometry, 697 cells, FITC goat anti-human IgG detection
CD20 (human) [48] = molecular target: T1, CD20 (human); assay: flow cytometry, Raji cells, FITC goat anti-human IgG detection
CD20 (human) [49] = molecular target: T1, CD20 (human); assay: flow cytometry, RS4;11 cells, FITC goat anti-human IgG detection (background 4.1)
CEACAM6 (human) [50] = molecular target: CEACAM6 (human) (UniProt P40199); assay: flow cytometry, surface, HuH-7 cells
CEACAM6 (human) [51] = molecular target: CEACAM6 (human) (UniProt P40199); assay: flow cytometry, surface, NCI-N87 cells
CEACAM6 (human) [52] = molecular target: CEACAM6 (human) (UniProt P40199); assay: flow cytometry, surface, Hep-G2 cells

Chain of CD74 (invariant chain, Ii) (human) (P04233 whole entry, change not shown): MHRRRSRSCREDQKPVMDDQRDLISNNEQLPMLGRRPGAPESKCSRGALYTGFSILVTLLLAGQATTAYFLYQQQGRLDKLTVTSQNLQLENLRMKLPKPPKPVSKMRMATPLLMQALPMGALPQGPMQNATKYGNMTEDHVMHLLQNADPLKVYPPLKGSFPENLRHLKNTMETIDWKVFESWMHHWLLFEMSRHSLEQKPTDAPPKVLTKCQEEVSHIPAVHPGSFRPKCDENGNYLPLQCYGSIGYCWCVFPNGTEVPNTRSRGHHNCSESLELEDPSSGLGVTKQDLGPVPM
Chain of CEACAM6 (human) (P40199 35-320): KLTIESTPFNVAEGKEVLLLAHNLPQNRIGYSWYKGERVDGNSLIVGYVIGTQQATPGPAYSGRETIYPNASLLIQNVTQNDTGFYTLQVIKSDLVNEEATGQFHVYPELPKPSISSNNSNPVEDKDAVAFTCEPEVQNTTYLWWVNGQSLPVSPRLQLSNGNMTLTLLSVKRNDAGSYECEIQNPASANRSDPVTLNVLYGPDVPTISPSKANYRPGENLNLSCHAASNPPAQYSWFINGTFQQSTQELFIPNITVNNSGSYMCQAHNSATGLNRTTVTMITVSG
Chain of Human trophoblast cell-surface antigen (TROP-2) (human) (P09758 27-323): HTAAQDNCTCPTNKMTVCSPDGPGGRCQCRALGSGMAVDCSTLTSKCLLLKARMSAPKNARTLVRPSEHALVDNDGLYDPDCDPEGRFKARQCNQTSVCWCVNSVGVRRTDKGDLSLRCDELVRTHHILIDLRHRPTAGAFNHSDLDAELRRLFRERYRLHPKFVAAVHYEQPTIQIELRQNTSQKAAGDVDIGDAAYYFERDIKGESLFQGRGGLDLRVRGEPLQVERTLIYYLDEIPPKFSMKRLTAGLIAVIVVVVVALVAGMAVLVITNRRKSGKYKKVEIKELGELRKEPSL

Question: Which Median fluorescence (CD22 (human) [1]) does the source give for “epratuzumab (hLL2), humanized anti-CD22 IgG1 (antibody)” here?
Answer: 10.3

Question: What about the Median fluorescence (CD22 (human) [2]) of the same molecule?
Answer: 11.2

Question: What about the Median fluorescence (CD22 (human) [3]) of the same molecule?
Answer: 22.9

Question: And the Median fluorescence (CD22 (human) [4])?
Answer: 40.8

Question: What about the Median fluorescence (CD22 (human) [5]) of the same molecule?
Answer: 145

Question: And the Median fluorescence (CD22 (human) [6])?
Answer: 7.7

Question: And the Median fluorescence (CD22 (human) [7])?
Answer: 16

Question: What about the Median fluorescence (CD22 (human) [8]) of the same molecule?
Answer: 45.9

Question: What about the Median fluorescence (CD22 (human) [9]) of the same molecule?
Answer: 23.3

Question: For “humanized RS7 IgG (hRS7), anti-TROP-2 humanized antibody”, which MFI [10] is on record?
Answer: 237

Question: And the MFI [11]?
Answer: 795

Question: “milatuzumab (hLL1), humanized anti-CD74 antibody” was tested. Which MFI Ratio hLL1:bkgd [12] did it give?
Answer: 1.5

Question: And the MFI Ratio hLL1:bkgd [13]?
Answer: 1.3

Question: What about the MFI [14] of the same molecule?
Answer: 144

Question: And the MFI [15]?
Answer: 59

Question: And the MFI Ratio hLL1:bkgd [16]?
Answer: 31.2

Question: What about the MFI Ratio hLL1:bkgd [17] of the same molecule?
Answer: 28.5

Question: And the MFI [18]?
Answer: 143

Question: What about the MFI Ratio hLL1:bkgd [19] of the same molecule?
Answer: 5.3

Question: What about the Kd [20] of the same molecule?
Answer: 0.77 nM

Question: And the MFI Ratio hLL1:bkgd [21]?
Answer: 49.6

Question: What about the MFI Ratio hLL1:bkgd [22] of the same molecule?
Answer: 30.8

Question: What about the MFI [23] of the same molecule?
Answer: 5

Question: And the MFI [24]?
Answer: 156

Question: And the MFI [25]?
Answer: 9

Question: And the MFI [26]?
Answer: 8

Question: And the MFI [27]?
Answer: 220

Question: And the MFI Ratio hLL1:bkgd [28]?
Answer: 28.6

Question: What about the MFI Ratio hLL1:bkgd [29] of the same molecule?
Answer: 28.8

Question: And the MFI [30]?
Answer: 114

Question: What about the MFI Ratio hLL1:bkgd [31] of the same molecule?
Answer: 36.7

Question: And the MFI Ratio hLL1:bkgd [32]?
Answer: 1.6

Question: What about the MFI Ratio hLL1:bkgd [33] of the same molecule?
Answer: 2.1

Question: What about the MFI Ratio hLL1:bkgd [34] of the same molecule?
Answer: 1.8

Question: And the MFI [35]?
Answer: 22

Question: What about the MFI [36] of the same molecule?
Answer: 248

Question: And the MFI Ratio hLL1:bkgd [37]?
Answer: 19.6

Question: And the MFI [38]?
Answer: 16

Question: And the MFI [39]?
Answer: 17

Question: What about the MFI [40] of the same molecule?
Answer: 185

B1: veltuzumab (hA20), humanized anti-CD20 IgG1 (antibody, from a related filing, V domains shown, part only)
VH: QVQLQQSGAEVKKPGSSVKVSCKASGYTFTSYNMHWVKQAPGQGLEWIGAIYPGNGDTSYNQKFKGKATLTADESTNTAYMELSSLRSEDTAFYYCARSTYYGGDWYFDVWGQGTTVTVSS
VL: DIQLTQSPSSLSASVGDRVTMTCRASSSVSYIHWFQQKPGKAPKPWIYATSNLASGVPVRFSGSGSGTDYTFTISSLQPEDIATYYCQQWTSNPPTFGGGTKLEIK
Question: Which results are given for B1?
Answer: Median fluorescence (CD20 (human) [41]): 21.5; Median fluorescence (CD20 (human) [42]): 605; Median fluorescence (CD20 (human) [43]): 12.3; Median fluorescence (CD20 (human) [44]): 620; Median fluorescence (CD20 (human) [45]): 815; Median fluorescence (CD20 (human) [46]): 97.4; Median fluorescence (CD20 (human) [47]): 6.9; Median fluorescence (CD20 (human) [48]): 422; Median fluorescence (CD20 (human) [49]): 3.7

B2: hMN-15, humanized anti-CEACAM6 antibody (antibody, from a related filing, IgG1, V domains shown)
VH: QVQLVESGGGVVQPGRSLRLSCSSSGFALTDYYMSWVRQAPGKGLEWLGFIANKANGHTTDYSPSVKGRFTISRDNSKNTLFLQMDSLRPEDTGVYFCARDMGIRWNFDVWGQGTPVTVSS
VL: DIQLTQSPSSLSASVGDRVTMTCSASSRVSYIHWYQQKPGKAPKRWIYGTSTLASGVPARFSGSGSGTDFTFTISSLQPEDIATYYCQQWSYNPPTFGQGTKVEIKR
Question: With B2 as the molecule, how does the MFI (CEACAM6 (human) [50]) read?
Answer: 81

Question: And the MFI (CEACAM6 (human) [51])?
Answer: 1120

Question: What about the MFI (CEACAM6 (human) [52]) of the same molecule?
Answer: 175
